The target in one data set is T1, mVirD2-GFP (Agrobacterium tumefaciens (from …, UniProt P06668 1-204)).
T1 sequence: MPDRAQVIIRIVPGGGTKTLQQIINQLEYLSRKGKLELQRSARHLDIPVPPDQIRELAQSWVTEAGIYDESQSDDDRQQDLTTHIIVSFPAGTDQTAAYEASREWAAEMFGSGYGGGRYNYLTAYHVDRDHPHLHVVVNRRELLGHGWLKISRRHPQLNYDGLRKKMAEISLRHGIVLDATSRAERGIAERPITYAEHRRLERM
In words: denaturing PAGE shift; covalent conjugate; Conjugation/EMSA: TKM buffer (50 mM Tris-HCl pH 8, 150 mM KCl, 1 mM MgCl2, 10% glycerol), 37 C, 1 h, 10% native PAGE; HER2 beads: PBS, room temperature, 15 min. The conditions noted are these: protein: recombinant; tags: N-terminal 6xHis.

The target in data set [1] is T2, mVirD2 (Agrobacterium tumefaciens (from …, UniProt P06668 1-204)).
T2 sequence: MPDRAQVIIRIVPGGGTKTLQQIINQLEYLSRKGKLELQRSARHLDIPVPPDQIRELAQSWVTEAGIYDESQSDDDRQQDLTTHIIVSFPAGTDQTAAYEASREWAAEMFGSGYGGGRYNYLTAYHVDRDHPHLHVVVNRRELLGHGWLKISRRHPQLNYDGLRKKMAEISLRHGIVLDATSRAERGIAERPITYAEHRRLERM
As to the kind of experiment: denaturing PAGE and SDS-PAGE shift; covalent conjugate; Conjugation/EMSA: TKM buffer (50 mM Tris-HCl pH 8, 150 mM KCl, 1 mM MgCl2, 10% glycerol), 37 C, 1 h, 10% native PAGE; HER2 beads: PBS, room temperature, 15 min. Conditions: protein: recombinant; tags: N-terminal 6xHis.

Data set [2] concerns the target T2, mVirD2. In words: EMSA; apparent Kd; 1 mM Mg2+; covalent conjugation; Conjugation/EMSA: TKM buffer (50 mM Tris-HCl pH 8, 150 mM KCl, 1 mM MgCl2, 10% glycerol), 37 C, 1 h, 10% native PAGE; HER2 beads: PBS, room temperature, 15 min. The conditions noted are these: protein: recombinant; tags: N-terminal 6xHis; label: 3' Cy3.
Data set [3] concerns the target T2, mVirD2. As to the kind of experiment: EMSA; 1 mM Mg2+; higher conjugate yield than T1; Conjugation/EMSA: TKM buffer (50 mM Tris-HCl pH 8, 150 mM KCl, 1 mM MgCl2, 10% glycerol), 37 C, 1 h, 10% native PAGE; HER2 beads: PBS, room temperature, 15 min. Conditions: protein: recombinant; tags: N-terminal 6xHis; label: 3' Cy3. On the technique in general: In EMSA bound probe runs differently from free probe, usually more slowly.

Data set [4] concerns the target T2, mVirD2. As to the kind of experiment: EMSA; non-covalent; no nicking; Conjugation/EMSA: TKM buffer (50 mM Tris-HCl pH 8, 150 mM KCl, 1 mM MgCl2, 10% glycerol), 37 C, 1 h, 10% native PAGE; HER2 beads: PBS, room temperature, 15 min. The conditions noted are these: protein: recombinant; tags: N-terminal 6xHis; single-stranded.
The target of the next data set is HER2 (UniProt P04626 23-652). As to the kind of experiment: bead pull-down, GFP fluorescence; aptamer conjugated to mVirD2-GFP; PBS, room temperature; Conjugation/EMSA: TKM buffer (50 mM Tris-HCl pH 8, 150 mM KCl, 1 mM MgCl2, 10% glycerol), 37 C, 1 h, 10% native PAGE; HER2 beads: PBS, room temperature, 15 min. Conditions: protein: commercial; tags: Fc; label: GFP (via conjugated protein).

B1: MOSIC HeA2_3 with mVirD2 site (ssDNA)
DNA: GCTCAAATTACAACGGTATATATCCTGCCAGTCAGTAGGGAAGAGAAGGACATATGATTCTAAAAGGATTCTTCCCAAGGGGATCCAATTCAAACAGC
With B1, the binding result with mVirD2-GFP and with mVirD2 [1] was “binds” each time.

B2: T1 (VirTarget) (ssDNA)
DNA: GCTCAAATTACAACGGTATATATCCTGCCAGTCAG
On to B2, for which, in the data set with mVirD2 [2], the Kd came to 468 ± 68 nM.

B3: PS-T1VirTarget (XNA)
DNA: GCTCAAATTACAACGGTATATATCCTGCCAGTCAG
modifications: phosphorothioate bonds at underlined bases (underline lost in text)
For B3, the binding result with mVirD2 [3] is “binds”.

B4: ss Cut site RNA (mixed)
DNA: GCTCAAATTACAACGGTATATATCCTGCCAGTCAG
modifications: DNA-RNA chimera; AT-rich binding sequence is DNA, cut site is RNA (bold lost in text)
Regarding B4, the binding result in the data set with mVirD2 [4] is listed as “binds”.

B5: HeA2_3 aptamer, nicked and conjugated to mVirD2-GFP (ssDNA)
DNA: CCAGTCAGTAGGGAAGAGAAGGACATATGATTCTAAAAGGATTCTTCCCAAGGGGATCCAATTCAAACAGC
modifications: 5' end covalently linked to mVirD2-GFP Tyr29
B5: the binding result with HER2 is on record as “binds”.

The values above are taken from publication PMC5737863, “Entirely enzymatic nanofabrication of DNA–protein conjugates”.
